Results: publication PMC12126490, “The HP1 box of KAP1 organizes HP1α for silencing of endogenous retroviral elements in embryonic stem cells” (Nature Communications, 2025)

Legend:
[1] = tested on: dsRed-HP1α in E14 ESC cells; assay: heterochromatin half-FRAP (MOCHA-FRAP); assay type: cell-based, mouse; settings: bleached and non-bleached half of heterochromatin compartment, living ESCs
Description: E14 ESC cells were transfected with 3 µg of pdsRed-HP1α and either pGFP or pGFP-KAP1FR using AMAXA nucleofector (Lonza), seeded in slide chambers containing high precision glass overnight at 37 °C and 5% CO2. Samples were analyzed using a Leica SP5-II confocal point scanner microscope equipped with 488 nm Argon ion and 561 nm DPSS 50 mW lasers, a AOBS beams splitter and a HyD Hybrid detector. Cells were first scanned for GFP^+ using a HCX PL APO 100x Corr CS objective, and a section of 64 × 64 pixels with 0.8-0.6 µm/px size containing one heterochromatin compartment of these cells was selected. Subsequently, a point region of interest was used to bleach the half of the heterochromatin compartment for 100 ms at maximum intensity of the laser (488 and 561 nm). The recovery was documented for 15 s with a frame rate of approximately 100 ms/frame. MOCHA-FRAP analysis was performed as in ref. [36].

[2] = tested on: DNA-induced HP1α phase separated droplets; assay: in vitro droplet assay; settings: 50 µM HP1α, 0.18 µM 601 DNA
Source text: For droplet assays, cDNA of full-length HP1α was cloned into a pET28 expression vector. His-tag fusion HP1α was expressed in E. coli and purified as in ref. [51]. cDNA of the KAP1FR fragment (aa 114–834) was cloned into a pCAG-GFP expression vector, and the P486A/V488A/L490A mutant of GFP-KAP1FR was generated using overlap extension PCR. Purification of GFP-KAP1FR proteins was described in ref. [52].
For the droplet assay, Widom 601 DNA was amplified by PCR using a plasmid coding for 12× 601 DNA with primers as follows: 601 DNA_F: […] and 601 DNA_R: TGCACAGGATGTATATATCTGACAC. HP1α was concentrated to ~10 µg/µl using Amicon concentrators. The buffer changes for both HP1α and GFP-KAP1FR solutions were carried out using Zeba™ Spin Desalting Columns with a buffer containing 20 mM HEPES at pH 7.2, 75 mM KCl, and 1 mM DTT. For visualization of His-tagged-HP1α within the droplets, 500 ng of protein was labeled with the 647 N fluorescent label using the Monolith NT™ Protein Labeling Kit RED-NHS from Nano Temper. To form HP1α droplets, 50 µM of HP1α was incubated with 0.18 µM of 601 DNA for 3 min and dropped into ibidi chamber (µ-Slide 18 Well). Subsequently, 50 ng of the labeled HP1α and 100 ng of GFP-KAP1FR (wild type or mutant) were added into HP1α/DNA droplets. The images of the droplets were collected using a Nikon TiE microscope equipped with a Yokogawa CSU-W1 spinning-disk confocal unit (50 μm pinhole size), an Andor Borealis illumination unit, Andor ALC600 laser beam combiner (405 nm/488 nm/561 nm/640 nm), Andor IXON 888 Ultra EMCCD camera, and a Nikon 100×/1.45 NA oil immersion objective. The size and intensity of HP1α phase-separated droplets were analyzed using ImageJ.

[3] = tested on: endogenous HP1α in KAP1^−/− ESCs; assay: immunofluorescence of endogenous HP1α; assay type: cell-based; settings: KAP1^−/− mouse ESCs stably expressing the GFP-labeled construct, anti-HP1α antibody, DAPI
Description: The constructs coding for GFP-KAP1RF and the P486A/V488A/L490A mutant were transfected into 1 ×10^5 KAP1^−/− mouse ESCs using Lipofectamine 3000 (Invitrogen). Forty-eight hours post-transfection, cells were trypsinized and plated at a colony density in selection medium containing 10 μg/ml blasticidin (Thermo Fisher Sci) for one week. The selection process was repeated once to establish stable GFP-KAP1 expressing cell lines.
For immunostaining, mouse ESCs were cultured on Geltrex-coated coverslips (Life Technologies) in DMEM supplemented with 16% fetal bovine serum, 0.1 mM β-mercaptoethanol (Invitrogen), 2 mM L-glutamine, 1× MEM non-essential amino acids, 100 U/ml penicillin, 100 µg/ml streptomycin (PAA), 2i (1 μM PD032591 and 3 μM CHIR99021 (Axon Medchem, Netherlands) and 1000 U/ml recombinant LIF (Millipore). Coverslips were rinsed twice with PBS (pH 7.4; 140 mM NaCl, 2.7 mM KCl, 6.5 mM Na2HPO4, 1.5 mM KH2PO4), followed by fixation with 3.7% formaldehyde (Sigma) for 10 min. Fixed cells were washed three times (10 min each) with PBST (PBS + 0.01% Tween-20), permeabilized in 0.5% Triton X-100 for 10 min, and washed twice (10 min each) with PBST. Primary and secondary antibodies were prepared in blocking solution (PBST + 3% BSA). […]

B1: GFP-KAP1FR: GFP labeled KAP1 fragment (aa 114–834 of KAP1) (protein)
chain: VVDCPVCKQQCFSKDIVENYFMRDSGSKAATDAQDANQCCTSCEDNAPATSYCVECSEPLCETCVEAHQRVKYTKDHTVRSTGPAKSRDGERTVYCNVHKHEPLVLFCESCDTLTCRDCQLNAHKDHQYQFLEDAVRNQRKLLASLVKRLGDKHATLQKSTKEVRSSIRQVSDVQKRVQVDVKMAILQIMKELNKRGRVLVNDAQKVTEGQQERLERQHWTMTKIQKHQEHILRFASWALESDNNTALLLSKKLIYFQLHRALKMIVDPVEPHGEMKFQWDLNAWTKSAEAFGKIVAERPGTNSTGPAPMAPPRAPGPLSKQGSGSSQPMEVQEGYGFGSGDDPYSSAEPHVSGVKRSRSGEGEVSGLMRKVPRVSLERLDLDLTADSQPPVFKVFPGSTTEDYNLIVIERGAAAAATGQPGTAPAGTPGAPPLAGMAIVKEEETEAAIGAPPTATEGPETKPVLMALAEGPGAEGPRLASPSGSTSSGLEVVAPEGTSAPGGGPGTLDDSATICRVCQKPGDLVMCNQCEFCFHLDCHLPALQDVPGEEWSCSLCHVLPDLKEEDGSLSLDGADSTGVVAKLSPANQRKCERVLLALFCHEPCRPLHQLATDSTFSLDQPGGTLDLTLIRARLQEKLSPPYSSPQEFAQDVGRMFKQFNKLTEDKADVQSIIGLQRFFETRMNEAFGDTKFSAVLVEPPPMSLPGAGLSSQELSGGPGDG
modifications: left off: GFP, end not stated, kept
fluorescence recovery of HP1α [1]: neither the bleached half (thin purple line) nor the non-bleached half (thick purple line) fully recovered their fluorescence
sequestration of 647N labeled HP1α into droplets ([2]; 20 mM HEPES pH 7.2, 75 mM KCl, 1 mM DTT, 100 ng GFP-KAP1FR, 50 ng labeled HP1α): sequestered HP1a into the interior of droplets within a minute
localization of GFP-KAP1FR in droplets ([2]; confocal microscopy): concentrated at the periphery of the droplets
distribution of endogenous HP1α (puncta) [3]: Endogenous HP1α formed large puncta and colocalized with GFP-KAP1FR
